The record followed here is PMC9361567.

Assay [1] concerns the target KHC + LC (Kinesin-1 HC-LCs complex) (Drosophila) (UniProt P17210). Kind of assay: BLI.
Assay [2] deals with KHC^Δh2 + LC (Drosophila) (UniProt P17210). Description: BLI. (Biolayer interferometry detects binding as a change in optical thickness at a sensor tip.)
In assay [3] the target is HALO::PLP^584-1811 WT (purified from Sf9) (Drosophila). Kind of assay: mass photometry.

Where “and” joins values, the source holds several entries; their conditions need not be identical. Equal values may be shown once.

Usually Kd stands for a measure of binding affinity in units of concentration. What is called stoichiometry N is a count of units in the complex or per binding partner. Take “HALO::PLP^584-1811 WT (purified from Sf9) (domain or fragment)”: the Kd in assay [1] amounted to 1700 nM; in assay [2] it was 65 nM. For the same substance, the stoichiometry N in assay [3] is 2 and 4.
